From patent US20250304666A1 (ALCHEMAB THERAPEUTICS, published 2025)
Numbering of substitutions follows the chain as printed. Each block holds one binder with its values, some of them ahead of it.

Experiments:
reduced CFHR1 = biological target: T1, reduced CFHR1 (UniProt Q03591 19-330, limits assumed); experiment: ELISA, reduced antigen
T1 sequence (looked up): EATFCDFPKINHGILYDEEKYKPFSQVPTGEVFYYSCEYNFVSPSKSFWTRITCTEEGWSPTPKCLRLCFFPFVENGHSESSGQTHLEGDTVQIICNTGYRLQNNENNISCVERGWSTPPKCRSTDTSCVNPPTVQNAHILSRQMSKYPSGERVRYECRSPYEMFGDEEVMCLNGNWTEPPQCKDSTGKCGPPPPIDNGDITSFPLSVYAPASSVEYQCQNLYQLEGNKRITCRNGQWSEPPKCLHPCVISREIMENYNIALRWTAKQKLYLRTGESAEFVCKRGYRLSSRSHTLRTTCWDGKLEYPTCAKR

reduced CFHR5 = biological target: T2, reduced CFHR5 (UniProt Q9BXR6 19-569, limits assumed); experiment: ELISA, reduced antigen
T2 sequence (looked up): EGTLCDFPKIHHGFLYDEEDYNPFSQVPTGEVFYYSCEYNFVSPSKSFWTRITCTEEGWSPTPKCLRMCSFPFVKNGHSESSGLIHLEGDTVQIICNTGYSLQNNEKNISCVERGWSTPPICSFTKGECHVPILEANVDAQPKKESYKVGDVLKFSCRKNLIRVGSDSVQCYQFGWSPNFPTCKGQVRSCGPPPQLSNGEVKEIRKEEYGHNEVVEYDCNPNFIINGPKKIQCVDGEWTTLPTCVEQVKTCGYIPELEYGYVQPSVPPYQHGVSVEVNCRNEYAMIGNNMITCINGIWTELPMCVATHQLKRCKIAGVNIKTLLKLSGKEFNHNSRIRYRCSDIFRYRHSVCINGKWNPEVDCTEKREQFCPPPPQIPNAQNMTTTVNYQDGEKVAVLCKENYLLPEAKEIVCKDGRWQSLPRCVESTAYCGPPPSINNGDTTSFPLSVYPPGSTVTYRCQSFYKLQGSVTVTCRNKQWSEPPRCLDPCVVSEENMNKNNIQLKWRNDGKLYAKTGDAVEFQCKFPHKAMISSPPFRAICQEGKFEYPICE

non-reduced CFHR5 = biological target: T3, non-reduced CFHR5; experiment: ELISA, non-reduced antigen
T3 construct: also called CFHR5 (NON-REDUCED)
T3 chain: T2 sequence (looked up)

non-reduced CFH = biological target: T4, non-reduced CFH; experiment: ELISA, non-reduced antigen
T4 construct: also called CFH (NON-REDUCED)
T4 chain: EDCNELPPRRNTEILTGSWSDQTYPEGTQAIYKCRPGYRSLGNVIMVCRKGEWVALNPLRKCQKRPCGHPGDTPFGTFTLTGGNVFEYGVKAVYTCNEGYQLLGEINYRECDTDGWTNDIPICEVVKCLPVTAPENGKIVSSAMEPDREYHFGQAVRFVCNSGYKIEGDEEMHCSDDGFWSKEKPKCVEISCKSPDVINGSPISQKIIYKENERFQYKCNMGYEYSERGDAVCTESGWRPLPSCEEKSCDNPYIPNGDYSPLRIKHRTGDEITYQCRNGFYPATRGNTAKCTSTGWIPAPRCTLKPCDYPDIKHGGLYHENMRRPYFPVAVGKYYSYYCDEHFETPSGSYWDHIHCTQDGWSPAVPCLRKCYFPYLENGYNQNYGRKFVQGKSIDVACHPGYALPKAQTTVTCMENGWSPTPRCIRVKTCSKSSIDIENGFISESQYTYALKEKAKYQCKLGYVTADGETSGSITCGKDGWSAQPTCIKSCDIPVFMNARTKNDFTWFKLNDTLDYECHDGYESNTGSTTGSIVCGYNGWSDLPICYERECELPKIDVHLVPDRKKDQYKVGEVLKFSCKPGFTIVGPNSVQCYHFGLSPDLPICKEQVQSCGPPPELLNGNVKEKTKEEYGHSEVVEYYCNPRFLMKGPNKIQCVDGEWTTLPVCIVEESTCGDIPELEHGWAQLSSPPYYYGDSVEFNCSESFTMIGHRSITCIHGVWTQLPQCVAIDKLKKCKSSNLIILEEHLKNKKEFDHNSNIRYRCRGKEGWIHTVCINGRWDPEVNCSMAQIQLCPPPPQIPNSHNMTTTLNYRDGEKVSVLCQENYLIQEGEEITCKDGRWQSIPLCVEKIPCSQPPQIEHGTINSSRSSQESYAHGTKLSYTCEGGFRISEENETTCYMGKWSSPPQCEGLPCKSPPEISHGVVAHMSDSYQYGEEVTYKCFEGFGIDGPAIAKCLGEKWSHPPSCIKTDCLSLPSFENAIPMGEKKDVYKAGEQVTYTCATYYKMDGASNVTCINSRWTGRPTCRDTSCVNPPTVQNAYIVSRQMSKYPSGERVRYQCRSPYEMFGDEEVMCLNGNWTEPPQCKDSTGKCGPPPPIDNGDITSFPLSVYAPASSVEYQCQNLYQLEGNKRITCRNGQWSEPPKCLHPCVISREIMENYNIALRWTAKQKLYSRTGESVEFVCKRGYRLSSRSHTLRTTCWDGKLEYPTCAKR

non-reduced CFHR1 = biological target: T5, non-reduced CFHR1; experiment: ELISA, non-reduced antigen
T5 construct: also called CFHR1 (NON-REDUCED)
T5 chain: T1 sequence (looked up)

non-reduced CFHR3 = biological target: T6, non-reduced CFHR3; experiment: ELISA, non-reduced antigen
T6 construct: also called CFHR3 (NON-REDUCED)
T6 chain: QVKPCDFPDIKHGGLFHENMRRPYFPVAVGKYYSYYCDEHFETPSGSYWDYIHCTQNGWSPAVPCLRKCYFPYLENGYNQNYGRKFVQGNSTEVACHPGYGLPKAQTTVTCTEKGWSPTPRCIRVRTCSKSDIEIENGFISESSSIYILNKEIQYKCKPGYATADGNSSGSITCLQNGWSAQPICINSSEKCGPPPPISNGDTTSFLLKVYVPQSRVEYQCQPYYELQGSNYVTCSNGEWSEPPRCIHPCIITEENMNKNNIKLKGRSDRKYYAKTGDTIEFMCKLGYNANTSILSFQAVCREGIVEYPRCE

non-reduced CFHR2 = biological target: T7, non-reduced CFHR2; experiment: ELISA, non-reduced antigen
T7 construct: also called CFHR2 (NON-REDUCED)
T7 chain: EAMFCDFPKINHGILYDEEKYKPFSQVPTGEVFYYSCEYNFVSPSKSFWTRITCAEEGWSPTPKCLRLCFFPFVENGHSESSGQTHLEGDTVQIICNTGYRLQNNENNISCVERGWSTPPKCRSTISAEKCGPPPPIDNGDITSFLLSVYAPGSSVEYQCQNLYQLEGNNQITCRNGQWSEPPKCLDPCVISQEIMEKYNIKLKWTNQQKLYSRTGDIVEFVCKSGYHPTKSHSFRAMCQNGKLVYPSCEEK

non-reduced CFHR4 = biological target: T8, non-reduced CFHR4; experiment: ELISA, non-reduced antigen
T8 construct: not reduced; also called CFHR4 (NON-REDUCED)

fold change vs isotype at 1 ug/ml (reduced CFHR1): 23.8 fold
binding result (reduced CFHR5): no binding (tested: 1 ug/ml)
fold change vs isotype at 1 ug/ml (reduced CFHR5): 1 fold
binding result (non-reduced CFHR5): no binding (tested: 1 ug/ml)
fold change vs isotype at 1 ug/ml (non-reduced CFHR5): 0.9 fold
fold change vs isotype at 1 ug/ml (non-reduced CFH): 7.3 fold
fold change vs isotype at 1 ug/ml (non-reduced CFHR1): 10.7 fold
binding result (non-reduced CFHR3): no binding (tested: 1 ug/ml)
fold change vs isotype at 1 ug/ml (non-reduced CFHR3): 0.9 fold
fold change vs isotype at 1 ug/ml (non-reduced CFHR2): 4.3 fold
fold change vs isotype at 1 ug/ml (non-reduced CFHR4): 0.9 fold
B1: ATL4717 (antibody, human IgG1, kappa, V domains shown)
VH: QVQLVESGGGMVQPGRSLRLSCAASGFTFSIYGMHWVRQAPGRGLEWVAVMSFDGKTKYYADSVKGRFTISRDNSKNTLYLQMNSLRRVDTAVYYCAKGGATAAVFDSWGQGTLVTVSS
VL: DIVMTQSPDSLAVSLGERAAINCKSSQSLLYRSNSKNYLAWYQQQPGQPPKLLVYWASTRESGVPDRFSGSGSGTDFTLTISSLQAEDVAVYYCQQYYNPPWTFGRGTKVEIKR
notes: Human IgG1; also called ATL0004717; ATL04717

fold change vs isotype at 1 ug/ml (reduced CFHR1): 23.1 fold
fold change vs isotype at 1 ug/ml (reduced CFHR5): 1.1 fold
binding result (non-reduced CFHR5): no binding (tested: 1 ug/ml)
fold change vs isotype at 1 ug/ml (non-reduced CFHR5): 1 fold
fold change vs isotype at 1 ug/ml (non-reduced CFH): 10 fold
fold change vs isotype at 1 ug/ml (non-reduced CFHR1): 8.4 fold
binding result (non-reduced CFHR3): no binding (tested: 1 ug/ml)
fold change vs isotype at 1 ug/ml (non-reduced CFHR3): 1 fold
fold change vs isotype at 1 ug/ml (non-reduced CFHR2): 1.3 fold
fold change vs isotype at 1 ug/ml (non-reduced CFHR4): 0.9 fold
B2: ATL5170 (antibody, human IgG1, kappa, V domains shown)
VH: B1 VH with M11V, I31N, R43K, M51T, R88A, V89E, F106L
VL: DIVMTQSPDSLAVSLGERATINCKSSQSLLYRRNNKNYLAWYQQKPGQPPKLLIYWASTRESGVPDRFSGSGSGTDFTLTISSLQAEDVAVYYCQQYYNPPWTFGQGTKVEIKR
notes: IgG1; also called ATL_0005170
